No end group written: not given here.
Columns and labels:
[1] = target: T1, GLP-1R E138A (Homo sapiens)
T1 chain: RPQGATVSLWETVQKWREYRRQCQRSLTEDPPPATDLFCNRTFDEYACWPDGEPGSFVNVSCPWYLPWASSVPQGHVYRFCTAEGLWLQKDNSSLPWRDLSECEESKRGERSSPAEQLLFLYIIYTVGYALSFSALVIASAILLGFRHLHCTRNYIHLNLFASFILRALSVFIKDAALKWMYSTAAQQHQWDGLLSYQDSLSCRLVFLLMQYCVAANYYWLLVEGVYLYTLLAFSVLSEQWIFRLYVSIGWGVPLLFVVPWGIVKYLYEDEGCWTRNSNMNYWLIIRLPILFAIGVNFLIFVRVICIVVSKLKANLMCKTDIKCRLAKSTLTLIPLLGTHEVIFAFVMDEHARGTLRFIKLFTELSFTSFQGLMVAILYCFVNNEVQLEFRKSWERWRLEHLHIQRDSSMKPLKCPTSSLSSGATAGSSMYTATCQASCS

[2] = target: T2, GLP-1R Y205A (Homo sapiens)
T2 chain: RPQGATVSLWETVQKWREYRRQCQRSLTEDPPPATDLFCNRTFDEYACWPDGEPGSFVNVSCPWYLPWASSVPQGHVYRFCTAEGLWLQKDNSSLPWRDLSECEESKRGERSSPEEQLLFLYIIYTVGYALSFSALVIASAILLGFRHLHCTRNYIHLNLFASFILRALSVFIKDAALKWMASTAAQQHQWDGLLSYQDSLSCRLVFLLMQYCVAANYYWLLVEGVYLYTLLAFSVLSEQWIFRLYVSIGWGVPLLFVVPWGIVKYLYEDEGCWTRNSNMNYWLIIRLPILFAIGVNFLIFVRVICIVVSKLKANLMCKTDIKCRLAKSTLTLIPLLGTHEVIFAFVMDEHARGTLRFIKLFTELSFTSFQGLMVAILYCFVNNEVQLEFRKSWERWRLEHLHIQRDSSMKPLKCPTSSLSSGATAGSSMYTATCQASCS

[3] = target: T3, GLP-1R K202A (Homo sapiens)
T3 chain: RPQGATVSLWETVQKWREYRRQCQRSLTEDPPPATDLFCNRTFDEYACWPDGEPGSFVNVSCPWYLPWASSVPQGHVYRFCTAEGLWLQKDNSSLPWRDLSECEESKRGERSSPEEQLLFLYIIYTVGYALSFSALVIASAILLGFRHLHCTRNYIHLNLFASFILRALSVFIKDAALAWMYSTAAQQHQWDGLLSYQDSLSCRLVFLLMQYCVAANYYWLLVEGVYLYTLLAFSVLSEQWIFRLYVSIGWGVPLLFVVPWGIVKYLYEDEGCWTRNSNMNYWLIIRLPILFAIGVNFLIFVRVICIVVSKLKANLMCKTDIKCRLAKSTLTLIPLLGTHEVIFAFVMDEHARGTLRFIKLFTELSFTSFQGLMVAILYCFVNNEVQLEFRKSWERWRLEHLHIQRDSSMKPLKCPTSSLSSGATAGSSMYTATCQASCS

[4] = target: T4, GLP-1R H212A (Homo sapiens)
T4 chain: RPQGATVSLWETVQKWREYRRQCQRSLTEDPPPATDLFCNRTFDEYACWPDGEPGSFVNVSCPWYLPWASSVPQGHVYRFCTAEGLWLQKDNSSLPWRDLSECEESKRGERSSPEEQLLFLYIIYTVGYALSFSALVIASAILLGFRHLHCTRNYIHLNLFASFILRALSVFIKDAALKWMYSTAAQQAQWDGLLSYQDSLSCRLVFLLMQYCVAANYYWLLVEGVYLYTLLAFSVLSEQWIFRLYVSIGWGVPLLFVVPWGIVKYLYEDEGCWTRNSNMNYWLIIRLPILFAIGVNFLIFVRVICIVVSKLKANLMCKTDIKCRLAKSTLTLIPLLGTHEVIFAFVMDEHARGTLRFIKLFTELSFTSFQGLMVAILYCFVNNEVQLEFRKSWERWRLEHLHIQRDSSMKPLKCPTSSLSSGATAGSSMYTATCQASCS

[5] = target: T5, GLP-1R Y145A (Homo sapiens)
T5 chain: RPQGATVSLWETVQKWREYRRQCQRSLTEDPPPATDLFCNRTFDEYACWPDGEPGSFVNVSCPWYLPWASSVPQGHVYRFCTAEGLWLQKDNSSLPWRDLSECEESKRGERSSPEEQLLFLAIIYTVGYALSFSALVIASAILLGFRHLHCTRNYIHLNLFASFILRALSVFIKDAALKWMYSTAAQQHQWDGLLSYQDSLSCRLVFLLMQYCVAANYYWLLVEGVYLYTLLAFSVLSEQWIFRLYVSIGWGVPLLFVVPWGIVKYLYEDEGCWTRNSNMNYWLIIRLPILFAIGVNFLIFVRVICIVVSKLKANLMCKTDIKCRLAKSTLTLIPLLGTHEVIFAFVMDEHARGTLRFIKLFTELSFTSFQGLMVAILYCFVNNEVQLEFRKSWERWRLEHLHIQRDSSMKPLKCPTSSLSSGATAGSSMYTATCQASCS

[6] = target: T6, GLP-1R S193A (Homo sapiens)
T6 chain: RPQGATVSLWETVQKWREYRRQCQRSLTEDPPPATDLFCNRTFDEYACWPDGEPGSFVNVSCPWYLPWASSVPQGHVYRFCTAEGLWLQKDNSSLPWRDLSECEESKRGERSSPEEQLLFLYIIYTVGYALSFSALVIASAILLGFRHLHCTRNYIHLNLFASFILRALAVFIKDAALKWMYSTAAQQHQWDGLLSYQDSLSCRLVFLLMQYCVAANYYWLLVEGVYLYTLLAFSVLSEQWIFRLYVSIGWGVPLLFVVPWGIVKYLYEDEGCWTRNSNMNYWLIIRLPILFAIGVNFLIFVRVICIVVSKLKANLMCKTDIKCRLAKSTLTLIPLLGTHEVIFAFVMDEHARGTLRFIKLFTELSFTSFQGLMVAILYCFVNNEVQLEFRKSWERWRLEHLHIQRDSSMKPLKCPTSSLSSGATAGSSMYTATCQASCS

Row | Binder | IC50 [1] | IC50 [2] | IC50 [3] | IC50 [4] | IC50 [5] | IC50 [6]
1 | HAEGTFTSDVSSYLEGQAAKEFIAWLVKGR (not fully specified (C-terminus)) [glucagon-like peptide-1] | 6.92 nM | 3.09 nM | 6.03 nM | 1.23 nM | 6.17 nM | 5.01 nM
2 | HSQGTFTSDYSKYLDSRRAQDFVQWLMNTKRNRNNIA [oxyntomodulin] | 45.7 nM | 36.3 nM | 191 nM | 12.9 nM | 24.5 nM | 14.8 nM

— paper PMC8748714 (2022)
